Assay results reported in patent US20220089678A1.

Biological target: human BCMA on cells (human) (UniProt Q02223)
Experiment: cell-based or functional assay

Chain of human BCMA on cells (human) (Q02223 whole entry): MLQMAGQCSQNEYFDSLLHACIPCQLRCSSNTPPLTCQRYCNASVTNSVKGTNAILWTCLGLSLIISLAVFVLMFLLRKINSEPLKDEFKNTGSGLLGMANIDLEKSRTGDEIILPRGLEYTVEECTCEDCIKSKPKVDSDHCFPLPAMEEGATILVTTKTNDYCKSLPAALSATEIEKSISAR

B1: CAR with OX40-CD3z cytoplasmic domain of SEQ ID: 105 (protein, part only; not given: anti-BCMA scFv, hinge, transmembrane, part only)
chain, part: RRDQRLPPDAHKPPGGGSFRTPIQEEQADAHSTLAKIRVKFSRSADAPAYQQGQNQLYNELNLGRREEYDVLDKRRGRDPEMGGKPRRKNPQEGLYNELQKDKMAEAYSEIGMKGERRRGKGHDGLYQGLSTATKDTYDALHMQALPPR
Killing (% killed), Effector:target ratio of 1:10: 46%
